Source: publication PMC7809796

Biological target: Cdc4 (UniProt P07834)
Assay: His-Far1
Conditions: reference: wild type Far1(85-150)

binding against the reference (sites S87)	binding against the reference (sites S91)	Substance
lost	–	Far1 85-150 (from UniProt P21268) S87 mutant (taken as S87A; not spelled out in text)
–	lost	Far1 85-150 (from UniProt P21268) S91 mutant (taken as S91A; not spelled out in text)
